Data: publication PMC11255602 (Protein Science : A Publication of the Protein Society, 2024)
Substitutions are numbered along the chain they refer to. Names may count otherwise.

B1: tetramer interface mutant (TIM) PRMT1 Y262A/Y304A/L341A (enzyme, human (rat sequence humanized by H161Y), UniProt Q99873-3 1-353, looked up)
chain: MAAAEAANCIMEVSCGQAESSEKPNAEDMTSKDYYFDSYAHFGIHEEMLKDEVRTLTYRNSMFHNRHLFKDKVVLDVGSGTGILCMFAAKAGARKVIGIECSSISDYAVKIVKANKLDHVVTIIKGKVEEVELPVEKVDIIISEWMGYCLFYESMLNTVLYARDKWLAPDGLIFPDRATLYVTAIEDRQYKDYKIHWWENVYGFDMSCIKDVAIKEPLVDVVDPKQLVTNACLIKEVDIYTVKVEDLTFTSPFCLQVKRNDAVHALVAYFNIEFTRCHKRTGFSTSPESPYTHWKQTVFYMEDALTVKTGEEIFGTIGMRPNAKNNRDLDFTIDLDFKGQACELSCSTDYRMR
B2: tetramer interface mutant 2 (TIM2) PRMT1 H64A/R66A/H278A (enzyme, human (rat sequence humanized by H161Y), UniProt Q99873-3 1-353, looked up)
chain: B1 chain with H64A, R66A, A262Y, H278A, A304Y, A341L
B3: H293A/E153A (HE) PRMT1 (enzyme, human (rat sequence humanized by H161Y), UniProt Q99873-3 1-353, looked up)
chain: B1 chain with E153A, A262Y, H293A, A304Y, A341L

Target: the molecule itself
Test: native gel or EMSA

Row | Protein | stoichiometry N
1 | B1 | 2
2 | B2 | 2
3 | B3 | 4
